# Measurements: article PMC12478413 (bioRxiv, 2025)
# Where two headings read alike, the source gives them in different places.
# B1: recombinant human LIMP2 lumenal domain (residues 36-430) (domain or fragment, UniProt Q14108 36-430, looked up)
# chain: SIEKKIVLRNGTEAFDSWEKPPLPVYTQFYFFNVTNPEEILRGETPRVEEVGPYTYRELRNKANIQFGDNGTTISAVSNKAYVFERDQSVGDPKIDLIRTLNIPVLTVIEWSQVHFLREIIEAMLKAYQQKLFVTHTVDELLWGYKDEILSLIHVFRPDISPYFGLFYEKNGTNDGDYVFLTGEDSYLNFTKIVEWNGKTSLDWWITDKCNMINGTDGDSFHPLITKDEVLYVFPSDFCRSVYITFSDYESVQGLPAFRYKVPAEILANTSDNAGFCIPEGNCLGSGVLNVSICKNGAPIIMSFPHFYQADERFVSAIEGMHPNQEDHETFVDINPLTGIILKAAKRFQINIYVKKLDDFVETGDIRTMVFPVMYLNESVHIDKETASRLKSMIN
# modifications: biotin on the Avitag (BirA, for SPR)
# How the values were obtained:
# [1] = molecular target: recombinant human LIMP2 lumenal domain (residues 36-430) (human) (UniProt Q14108); test: SPR
# [2] = molecular target: recombinant GCase E326K variant (human GBA1 residues A40-Q536) (human); test: dynamic light scattering
# [3] = molecular target: recombinant human LIMP2 lumenal domain (residues 36-430) (human) (UniProt Q14108); test: SEC-MALS
# [4] = molecular target: recombinant GCase E326K variant (human GBA1 residues A40-Q536) (human); test: SEC
# [5] = molecular target: recombinant human LIMP2 lumenal domain (residues 36-430) (human) (UniProt Q14108); test: SPR; remark: listed apart in the source
# [6] = molecular target: recombinant GCase E326K+R329A double mutant (human); test: SEC
# [7] = molecular target: T1, recombinant WT GCase (glucocerebrosidase, human GBA1 residues A40-Q536) (human, UniProt P04062 40-536); test: SPR
# T1 sequence (looked up): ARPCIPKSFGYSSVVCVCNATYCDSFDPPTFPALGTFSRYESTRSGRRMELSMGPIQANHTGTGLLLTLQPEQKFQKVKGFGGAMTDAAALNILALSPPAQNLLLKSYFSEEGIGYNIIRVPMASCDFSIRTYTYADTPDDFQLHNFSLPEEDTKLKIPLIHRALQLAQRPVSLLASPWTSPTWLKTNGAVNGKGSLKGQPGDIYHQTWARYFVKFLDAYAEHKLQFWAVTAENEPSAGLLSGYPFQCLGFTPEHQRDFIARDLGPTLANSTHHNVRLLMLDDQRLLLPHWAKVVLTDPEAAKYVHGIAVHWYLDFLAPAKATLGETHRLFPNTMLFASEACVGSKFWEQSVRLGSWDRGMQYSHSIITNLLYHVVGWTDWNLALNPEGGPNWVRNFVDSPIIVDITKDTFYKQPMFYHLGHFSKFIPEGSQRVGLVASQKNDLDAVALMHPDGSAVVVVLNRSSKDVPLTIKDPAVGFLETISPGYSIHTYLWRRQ
# [8] = molecular target: T1, recombinant WT GCase …; test: SPR; remark: listed apart in the source
molecule,measurement,setting,value
recombinant GCase E326K variant (human GBA1 residues A40-Q536) (enzyme),Kd,[1],3.89 nM
same,stoichiometry N,[2],2
same,stoichiometry N (GCase E326K : LIMP2 (2:2)),[3],1
same,stoichiometry N,[4],2
same,Kd,[5],2.44 nM
recombinant GCase E326K+R329A double mutant (enzyme),stoichiometry N,[6],2
B1,Kd,[7],19.9 nM
same,Kd,[8],14.4 nM
